Assay results: the supplement of paper PMC10065799, “High-throughput profiling of sequence recognition by tyrosine kinases and SH2 domains using bacterial peptide display” (eLife, 2023)

target: SHP2-C SH2; test: SH2 binding enrichment of the phosphorylated peptide, bacterial display (enrichment ratio); higher = better substrate or ligand; peptides without Tyr show the background
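Throughout, for SH2 binding enrichment of the phosphorylated peptide, bacterial display: peptide library displayed on the E. coli surface as eCPX fusions, selected cells deep-sequenced, score is each peptide's frequency after selection divided by its frequency in the input.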
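Throughout, for phosphorylation enrichment, bacterial display: 11-residue human phosphosite peptides and single-mutation variants displayed on the E. coli surface, counted by deep sequencing, each peptide's frequency after selection divided by its frequency in the unselected input library; frequency after pTyr selection over input frequency; kinase dosed for 20-30% of maximal phosphorylation in three min.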

Sequence	SH2 binding enrichment
YYHCTYKKRMI [CLEC12A_Y242]	0.966
RLLVVYPWTER [HBB_Y36_Q40E]	2.29
YSMGCYEISLG [HMGCL_Y198]	0.658
GADAIYDHINE [UQCR10_Y44]	0.561
LLKKIYLMLDN [STAT1_Y203_M202I]	1.1
GASWRYRSGVS [NEU1_Y242_G243R]	0.524
IRSGIYYKPES [L2HGDH_Y102_H98R]	0.419
ICANKYMVKSC [RPL10_Y75]	1.12
TSNNPYFRDQA [RPGRIP1_Y846_A841T]	0.844
AFLQTYSHEVS [PCDHGA5_Y753]	0.873
HKLSSYEYDFE [BTK_Y40_Y39S]	0.411
SGEKPYKCSEC [ZNF543_Y283]	0.65
WRPFGYPRCRR [BCS1L_Y181_R184C]	0.39
SLAARYYNWVC [FLT4_Y1230_S1235C]	1.21
FAAAGYGSLEA [EPHA10_Y959]	0.701
RENGPYYASYP [GDAP2_Y487_T489A]	1.13
PYTDPYYDYEI [ZC3H18_Y371_A368T]	0.591

Sequence	SH2 binding enrichment
GPQSLYNGLVA [UCP2_Y79_R76Q]	0.546
KWRGQYDVAIE [BTK_Y425_K430E]	0.823
LQTFHYHGHSM [PDHA1_Y289_R288H_YF]	1.47
GSCQEYTGAPF [NAXD_Y85_G81S_YF]	0.822
AEPDIYQEKLS [USP54_Y1233]	0.785
FTNRSYDLDYD [MYC_Y12_N11S]	0.418
GPCKAYELSQR [SETX_Y1297_R1294C]	0.958
GEPLSYTRFSL [TFRC_Y20]	0.519
YVPSNYVAEDR [FRK_Y104_I100V]	0.738
TRSFDYMEGED [FGF7_Y58_G62E_YF]	0.589
MSFDRYMAVCH [OR2A5_Y123_I126V_YF]	0.684
ENAGYYFRISA	0.776
AKKVFYMIETR [SHH_Y253_V254M]	1.01
KIIATYRLCSE [DNAH3_Y1586_V1583I]	0.611
TFVKSYTIHFS [F5_Y2153_M2148T_YF]	0.729
NSRFTYKLEVK [USH2A_Y3747_YF]	0.561

target: Grb2 SH2 (UniProt P62993); test: as above
Sequence (P62993 whole entry, looked up): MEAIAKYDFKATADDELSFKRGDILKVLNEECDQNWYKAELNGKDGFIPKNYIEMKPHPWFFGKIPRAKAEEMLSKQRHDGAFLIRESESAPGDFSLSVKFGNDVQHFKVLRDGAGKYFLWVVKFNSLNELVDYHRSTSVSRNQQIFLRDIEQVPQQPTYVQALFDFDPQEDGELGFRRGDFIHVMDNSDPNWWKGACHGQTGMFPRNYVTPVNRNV

Sequence	SH2 binding enrichment
YYHCTYKKRMI [CLEC12A_Y242]	1.25
RLLVVYPWTER [HBB_Y36_Q40E]	2.1
YSMGCYEISLG [HMGCL_Y198]	0.551
GADAIYDHINE [UQCR10_Y44]	0.704
LLKKIYLMLDN [STAT1_Y203_M202I]	0.899
GASWRYRSGVS [NEU1_Y242_G243R]	0.82
IRSGIYYKPES [L2HGDH_Y102_H98R]	0.712
ICANKYMVKSC [RPL10_Y75]	1.09
TSNNPYFRDQA [RPGRIP1_Y846_A841T]	0.789
AFLQTYSHEVS [PCDHGA5_Y753]	1.01
HKLSSYEYDFE [BTK_Y40_Y39S]	0.69
SGEKPYKCSEC [ZNF543_Y283]	1.02
WRPFGYPRCRR [BCS1L_Y181_R184C]	0.714
SLAARYYNWVC [FLT4_Y1230_S1235C]	6.7
FAAAGYGSLEA [EPHA10_Y959]	0.926
RENGPYYASYP [GDAP2_Y487_T489A]	0.822
PYTDPYYDYEI [ZC3H18_Y371_A368T]	1.13

Sequence	SH2 binding enrichment
GPQSLYNGLVA [UCP2_Y79_R76Q]	0.664
KWRGQYDVAIE [BTK_Y425_K430E]	1.01
LQTFHYHGHSM [PDHA1_Y289_R288H_YF]	1.47
GSCQEYTGAPF [NAXD_Y85_G81S_YF]	0.946
AEPDIYQEKLS [USP54_Y1233]	1.19
FTNRSYDLDYD [MYC_Y12_N11S]	0.717
GPCKAYELSQR [SETX_Y1297_R1294C]	0.775
GEPLSYTRFSL [TFRC_Y20]	0.901
YVPSNYVAEDR [FRK_Y104_I100V]	0.735
TRSFDYMEGED [FGF7_Y58_G62E_YF]	0.911
MSFDRYMAVCH [OR2A5_Y123_I126V_YF]	0.789
ENAGYYFRISA	0.661
AKKVFYMIETR [SHH_Y253_V254M]	1.46
KIIATYRLCSE [DNAH3_Y1586_V1583I]	0.74
TFVKSYTIHFS [F5_Y2153_M2148T_YF]	0.97
NSRFTYKLEVK [USH2A_Y3747_YF]	0.757

target: c-Src SH2; test: as above

Sequence	SH2 binding enrichment
YYHCTYKKRMI [CLEC12A_Y242]	1.11
RLLVVYPWTER [HBB_Y36_Q40E]	1.55
YSMGCYEISLG [HMGCL_Y198]	0.582
GADAIYDHINE [UQCR10_Y44]	0.678
LLKKIYLMLDN [STAT1_Y203_M202I]	0.896
GASWRYRSGVS [NEU1_Y242_G243R]	0.391
IRSGIYYKPES [L2HGDH_Y102_H98R]	0.697
ICANKYMVKSC [RPL10_Y75]	1.13
TSNNPYFRDQA [RPGRIP1_Y846_A841T]	0.503
AFLQTYSHEVS [PCDHGA5_Y753]	0.57
HKLSSYEYDFE [BTK_Y40_Y39S]	1.33
SGEKPYKCSEC [ZNF543_Y283]	0.488
WRPFGYPRCRR [BCS1L_Y181_R184C]	0.459
SLAARYYNWVC [FLT4_Y1230_S1235C]	1.87
FAAAGYGSLEA [EPHA10_Y959]	0.515
RENGPYYASYP [GDAP2_Y487_T489A]	0.705
PYTDPYYDYEI [ZC3H18_Y371_A368T]	2.66

Sequence	SH2 binding enrichment
GPQSLYNGLVA [UCP2_Y79_R76Q]	0.697
KWRGQYDVAIE [BTK_Y425_K430E]	3.07
LQTFHYHGHSM [PDHA1_Y289_R288H_YF]	1.27
GSCQEYTGAPF [NAXD_Y85_G81S_YF]	0.596
AEPDIYQEKLS [USP54_Y1233]	0.674
FTNRSYDLDYD [MYC_Y12_N11S]	2.51
GPCKAYELSQR [SETX_Y1297_R1294C]	0.634
GEPLSYTRFSL [TFRC_Y20]	0.558
YVPSNYVAEDR [FRK_Y104_I100V]	0.608
TRSFDYMEGED [FGF7_Y58_G62E_YF]	0.618
MSFDRYMAVCH [OR2A5_Y123_I126V_YF]	0.845
ENAGYYFRISA	0.6
AKKVFYMIETR [SHH_Y253_V254M]	1.06
KIIATYRLCSE [DNAH3_Y1586_V1583I]	0.574
TFVKSYTIHFS [F5_Y2153_M2148T_YF]	0.537
NSRFTYKLEVK [USH2A_Y3747_YF]	0.331

target: Fyn (UniProt P06241); test: phosphorylation enrichment, bacterial display (enrichment ratio); higher = better substrate or ligand; peptides without Tyr show the background
Sequence (P06241 whole entry, looked up): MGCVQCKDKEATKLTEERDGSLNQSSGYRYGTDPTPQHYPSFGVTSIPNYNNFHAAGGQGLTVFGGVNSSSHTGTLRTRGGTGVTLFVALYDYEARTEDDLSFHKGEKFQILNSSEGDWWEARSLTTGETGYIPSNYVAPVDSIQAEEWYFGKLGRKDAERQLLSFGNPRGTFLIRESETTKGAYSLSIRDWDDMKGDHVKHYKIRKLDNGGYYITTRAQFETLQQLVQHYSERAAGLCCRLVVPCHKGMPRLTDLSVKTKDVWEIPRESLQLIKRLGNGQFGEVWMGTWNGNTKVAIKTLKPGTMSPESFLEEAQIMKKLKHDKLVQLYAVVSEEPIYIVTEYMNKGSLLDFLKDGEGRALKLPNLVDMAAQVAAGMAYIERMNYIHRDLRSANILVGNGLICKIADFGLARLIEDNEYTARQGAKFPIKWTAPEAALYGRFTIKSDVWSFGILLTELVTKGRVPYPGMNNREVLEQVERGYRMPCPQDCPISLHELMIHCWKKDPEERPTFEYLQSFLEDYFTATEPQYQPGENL

Sequence	phosphorylation enrichment
YYHCTYKKRMI [CLEC12A_Y242]	0.59
RLLVVYPWTER [HBB_Y36_Q40E]	0.472
YSMGCYEISLG [HMGCL_Y198]	2.15
GADAIYDHINE [UQCR10_Y44]	5.57
LLKKIYLMLDN [STAT1_Y203_M202I]	0.562
GASWRYRSGVS [NEU1_Y242_G243R]	0.388
IRSGIYYKPES [L2HGDH_Y102_H98R]	1.97
ICANKYMVKSC [RPL10_Y75]	0.406
TSNNPYFRDQA [RPGRIP1_Y846_A841T]	0.51
AFLQTYSHEVS [PCDHGA5_Y753]	0.602
HKLSSYEYDFE [BTK_Y40_Y39S]	0.72
SGEKPYKCSEC [ZNF543_Y283]	0.533
WRPFGYPRCRR [BCS1L_Y181_R184C]	0.498
SLAARYYNWVC [FLT4_Y1230_S1235C]	0.565
FAAAGYGSLEA [EPHA10_Y959]	0.443
RENGPYYASYP [GDAP2_Y487_T489A]	8.25
PYTDPYYDYEI [ZC3H18_Y371_A368T]	4.83

Sequence	phosphorylation enrichment
GPQSLYNGLVA [UCP2_Y79_R76Q]	0.85
KWRGQYDVAIE [BTK_Y425_K430E]	0.39
LQTFHYHGHSM [PDHA1_Y289_R288H_YF]	0.501
GSCQEYTGAPF [NAXD_Y85_G81S_YF]	0.422
AEPDIYQEKLS [USP54_Y1233]	0.58
FTNRSYDLDYD [MYC_Y12_N11S]	0.565
GPCKAYELSQR [SETX_Y1297_R1294C]	0.533
GEPLSYTRFSL [TFRC_Y20]	0.443
YVPSNYVAEDR [FRK_Y104_I100V]	0.411
TRSFDYMEGED [FGF7_Y58_G62E_YF]	0.649
MSFDRYMAVCH [OR2A5_Y123_I126V_YF]	0.585
ENAGYYFRISA	0.488
AKKVFYMIETR [SHH_Y253_V254M]	0.439
KIIATYRLCSE [DNAH3_Y1586_V1583I]	0.407
TFVKSYTIHFS [F5_Y2153_M2148T_YF]	0.468
NSRFTYKLEVK [USH2A_Y3747_YF]	0.38
